From patent publication US20110287023A1 (AstraZeneca / MedImmune, published 2011) come the findings set out here.

In assay [1] the target is T1, released HMG1 from conditioned medium of necrotic 293H cells (human, UniProt P09429 1-215).
T1 construct: also called necrotic HMG1
T1 sequence (looked up): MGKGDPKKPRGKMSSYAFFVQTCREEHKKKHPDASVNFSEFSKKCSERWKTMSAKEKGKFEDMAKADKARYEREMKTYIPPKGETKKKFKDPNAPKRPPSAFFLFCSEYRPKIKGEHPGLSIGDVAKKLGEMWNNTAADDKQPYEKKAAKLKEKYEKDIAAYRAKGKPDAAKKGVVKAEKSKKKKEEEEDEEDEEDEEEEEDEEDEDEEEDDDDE
As to the kind of experiment: sandwich ELISA: antibody titrated and captured on anti-human IgG Fc, released HMG1 in solution, mouse anti-HMGB1 detection, OD 450. Here is the method: (§1) Sandwich ELISA (soluble HMG1): Immunoplates (EIA/RIA plate, High binding, Costar) were coated with anti human IgG Fc at 10 μg/ml in PBS (pH 7.2) and incubated at 4° C. overnight. The coating reagent was removed and the plates were rinsed briefly with PBS. The plates were then blocked with 4% milk for 1 hour at 37° C. and rinsed with PBS. The anti-HMG1 antibodies were diluted in 4% milk. For serial dilutions, the antibodies were used at a starting concentration of 20 μg/ml. The diluted anti-HMG1 antibodies were then added into plate and incubated for 1 hr at 37° C. The plate was then washed 10 times with PBST (PBS/0.1% tween 20) and incubate with antigen (HMGB1, 2 μg/ml; or 0.7 μg/ml for native HMGB1) in 4% milk and incubated at 37° C. for 1 h. The plate was then wash 10 times and incubated with mouse anti-HMGB1, 1 μg/ml in 4% milk at 37° C. for 1 h. The plate was washed 10 times and incubated with anti-mouse IgG-HRP at 1:1000 at 37° C. for 1 h. The plate was then washed and developed. HRP activity was detected with Sureblue HRP substrate (KPL). Plates were read at 450 nm using a Kinetic Microplate Reader (Molecular Devices).
In general terms: In an ELISA, binding on a coated surface is turned into a signal by an enzyme label.

Assay [2] concerns the target T2, nuclear HMGB1 in fixed HUVEC cells (UniProt P09429 1-215, limits assumed).
T2 construct: whole, on cells; immunostaining
T2 sequence (looked up): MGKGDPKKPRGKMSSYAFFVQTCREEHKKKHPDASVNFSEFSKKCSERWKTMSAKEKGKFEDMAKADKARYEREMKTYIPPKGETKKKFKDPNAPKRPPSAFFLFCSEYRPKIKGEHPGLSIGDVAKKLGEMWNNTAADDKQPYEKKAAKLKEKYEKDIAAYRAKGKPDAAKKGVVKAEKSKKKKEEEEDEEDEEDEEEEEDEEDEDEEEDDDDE
As to the kind of experiment: immunofluorescence on fixed HUVEC, anti-human IgG-FITC; paragraph 81 gives the lower panels as G4. Here is the method: Immunofluorescence: Intracytoplasmic (ic) HMGB1 was quantitated by direct immunofluorescence. HUVEC were harvested by trypsin-EDTA treatment and seeded on a glass coverslip. Once the cells are settled, they were stimulated with 0.2 μg/ml of LPS (Sigma) for 4 hours. The cells were fixed in 2% paraformaldehyde for 15 min and then permeabilized in 0.2% Triton X-100 for 2 min. Fixed and permeabilized cells were incubated with anti-HMGB1 antibodies at 1 μg/ml for 1 hour at room temperature. Cells were then washed to remove excess or nonspecifically bound primary antibody followed by incubation with anti human IgG conjugated with fluorescence (Pierce). The sections were mounted with fluoromount (Southern Associates, Birmingham, Ala.), and the images were processed with a Nikon microscope (Japan) and a SPOT imaging system (Diagnostic Instrument).

Assay [3] concerns the target T3, native nuclear HMG1 from freeze-thawed 293H cells (human, UniProt P09429 1-215).
T3 construct: unpurified cell supernatant
T3 sequence (looked up): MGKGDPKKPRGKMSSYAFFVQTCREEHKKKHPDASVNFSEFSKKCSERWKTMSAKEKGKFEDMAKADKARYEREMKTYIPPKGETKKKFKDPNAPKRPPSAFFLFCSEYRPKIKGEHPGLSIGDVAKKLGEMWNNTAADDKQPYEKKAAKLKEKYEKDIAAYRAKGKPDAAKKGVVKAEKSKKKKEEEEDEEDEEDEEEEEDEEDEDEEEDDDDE
The assay is described as follows: sandwich ELISA: antibody titrated and captured on anti-human IgG Fc, native nuclear HMG1 at 0.7 ug/ml, mouse anti-HMGB1 and anti-mouse IgG-HRP, OD 450. Here is the method: as §1

The target of assay [4] is T4, recombinant rat HMGB-1 labelled with europium (rat, UniProt P63159 1-215, limits assumed, Eu label, molar ratio HMGB-1 to Eu 1:5).
T4 construct: also called Europium-labeled HMGB-1
T4 sequence (looked up): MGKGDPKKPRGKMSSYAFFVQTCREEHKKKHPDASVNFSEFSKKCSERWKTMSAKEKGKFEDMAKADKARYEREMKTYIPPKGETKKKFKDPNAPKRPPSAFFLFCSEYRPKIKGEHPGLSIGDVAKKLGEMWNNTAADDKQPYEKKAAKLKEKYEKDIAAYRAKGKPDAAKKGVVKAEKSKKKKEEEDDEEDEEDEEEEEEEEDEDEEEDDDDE
As to the kind of experiment: inhibition of binding of 2 nM Eu-labelled recombinant rat HMGB-1 to THP-1 cells. As for the experimental part:
HMG1 binding to THP-1 Cells: Recombinant rat HMGB-1 was labeled using Eu-labelling Kit from PerkinElmer. Molar ratio of HMGB-1 to Eu is 1:5. THP-1 were cultured as the protocol from ATCC. Cells were harvested and suspended at concentration 1×10⁶/ml in assay buffer containing 1×DELFIA L*R binding buffer (PerkinElmer), 50% of DELFIA stabilizer (PerkinElmer) and 0.05% of sodium azide. 100 μl of cells (1×10⁵) was added into wells in 96 well cell culture plate. The plate was incubated with gentle shaking at 4° C. for one hour. 100 μl of assay buffer containing 2 nM of Europium-labeled HMGB-1 mixed with various concentrations (333, 166.5, 83.25, 41.6, 20.8, 10.4 and 5.2 nM) of human anti-HMGB1 antibodies E11 or G2 or soluble human RAGE-Fc, were added into each wells respectively. After one hour incubation with gentle shaking at 4° C., the cells were washed four times with 1×L*R wash buffer (PerkinElmer) by centrifuging at 1200 rpm×5 min. 200 μl of enhancement solution was added into each well to dissociate and enhance Eu fluorescence at 615 nm. The fluorescence was measured with Wallac Victor Fluorometer. Assay was performed in triplicate and human antibody R3-47 was used the negative isotype control.

B1: human anti-HMG1 antibody G4 (antibody, IgG1, V domains shown)
VH: EVQLLESGGGLVQPGGSLRLSCAASGFTFSWYDMTWVRQAPGKGLEWVSSISPSGGYTKYADSVKGRFTISRDNSKNTLYLQMNSLRAEDTAVYYCTTEFYDYLDVWGKGTTVTVSS
VL: DIQMTQSPGTLSLSPGEGATLSCRASQSVSSTYLAWYQQKPGQAPRLLIYEASKRATGTPARFSGSGSGTDFTLSISSLEPEDFAVYYCQHRHNWPPQWTFGQGTKVEVK
notes: full length IgG1 made from a human Fab phage clone; also called ATCC PTA-6258
With B1, the binding result in assay [1], in assay [2] and in assay [3] was “binds” throughout.

B2: human anti-HMG1 antibody E11 (antibody, IgG1, V domains shown)
VH: EVQLLESGGGLVQPGGSLRLSCAASGFTFSRYQMNWVRQAPGKGLEWVSSISPSGGHTHYADSVKGRFTISRDNSKNTLYLQMNSLRAEDTAVYYCAKDGRQGKISTVDHWGQGTLVTVSS
VL: DIQMTQSPGTLSLSPGERATLSCRASQSVRSNFLAWYQQKPGQAPRLLIYGASRRASGIPDRFSGSGFGADFTLSISRLEPEDFAVYYCQQYGSSPNTFGQGSRVEIK
notes: full length IgG1 made from a human Fab phage clone
For orientation: IC50 means the midpoint of a concentration-inhibition curve. As for B2, the IC50 in assay [4] turned out to be 48.1 nM.
